Assay results from patent US20080306243A1, “Hla-Binding Peptide, and Dna Fragment and Recombinant Vector Coding for Said Hla-Binding Peptide” (NEC CORPORATION, priority 2005, published 2008).
Like-named read-outs stand apart in the source and are kept apart here.

Legend:
[1] = biological target: HLA-A0206 molecule, which is a product of the HLA-A*0206 gene (human); experiment: flow cytometry; peptide stabilisation of empty HLA-A0206 on RA2.6 cells (TAP-deficient), stained with mAb 17A10 or 17A12
[2] = biological target: HLA-A2402 molecule, which is a product of the HLA-A*2402 gene (human); experiment: flow cytometry; reassociation of peptide, added β2m and HLA-A2402 on acid-stripped C1R-A24 cells, stained with mAb 17A12
[3] = biological target: HLA-A0201 molecule, which is a product of the HLA-A*0201 gene (human); experiment: flow cytometry; reassociation of peptide, added β2m and HLA-A0201 on acid-stripped JY cells, stained with mAb BB7.2; settings: remark: other sources report otherwise
[4] = remark: other sources report otherwise

| Binder | -log Kd [1] | other results |
| --- | --- | --- |
| GVLVHPQWV (modifications not checked) [SEQ ID NO 19] | 6.28 -log Kd |  |
| DLPTQEPAL (modifications not checked) [SEQ ID NO 27] | 5.26 -log Kd |  |
| DLPTQEPAL (modifications not checked) [SEQ ID NO 4] |  | -log Kd [2, 4]: 5.23 -log Kd |
| LVASRGRAV (modifications not checked) [SEQ ID NO 22] | 5.25 -log Kd |  |
| MLLRLSEPA [SEQ ID NO 17] |  | -log Kd [3]: 6.2 -log Kd |
| WVPVVFLTL (modifications not checked) [SEQ ID NO 2] |  | -log Kd [2]: 7.29 -log Kd |
| WVPVVFLTL (modifications not checked) [SEQ ID NO 24] | 6.74 -log Kd |  |
| WVLTAAHCI [SEQ ID NO 12] |  | -log Kd [2, 4]: 4.63 -log Kd |
